In patent publication US9932404B2 (Janssen Biotech, Inc., dated 2018):

How the values were obtained:
Assay in all cases: cell-based or functional assay
full length human TLR3 = full length human TLR3 (human)
full-length murine TLR3 = full-length murine TLR3 (mouse)
cynomolgus TLR3 = cynomolgus TLR3 (cynomolgus, UniProt A0A2K5WT39)

Row | % inhibition of poly(I:C)-induced NF-κB luciferase reporter (full length human TLR3) [%] | Binder | further results
1 | > 50 | mAb 1 (antibody, V domains shown) V domain 1: GVELVQSGAEVKKPGESLKISCKGSGYSFTDNWISWVRQAPGKGLEWMGVIDPSDSYTNYAPSFQGQVTISADKSISTAYLQWSSLKASDTAMYYCAREWGIGGMVDIWG V domain 2: DIVLTQSPATLSLSPGERATLSCRASQYIDISYLAWYQQKPGQAPRLLIYDASSRATGVPARFSGSGSGTDFTLTISSLEPEDFAVYYCQQYYSLSITFGQGTKVEIK | 
2 | > 50 | mAb 13 (antibody, V domains shown) VH: QVELVQSGAEVKKPGESLKISCKGSGYSFTNYWVGWVRQMPGKGLEWMGFIDPSDSYTNYAPSFQGQVTISADKSISTAYLQWSSLKASDTAMYYCARELYQGYMDTFDSWGQGTLVTVSS VL: DIQMTQSPSSLSASVGDRVTITCRASQSIGLYLAWYQQKPGKAPKLLIYAASSLQSGVPSRFSGSGSGTDFTLTISSLQPEDFATYYCQQGESILSTFGQGTKVEIK | 
3 | > 50 | mAb 14 (antibody, V domains shown) VH: QVELVQSGAEVKKPGESLKISCKGSGYSFTNYWVGWVRQMPGKGLEWMGFIDPSDSYTNYAPSFQGQVTISADKSISTAYLQWSSLKASDTAMYYCARELYQGYMDTFDSWGQGTLVTVSS VL: DIQMTQSPSSLSASVGDRVTITCRASQSIGLYLAWYQQKPGKAPKLLIYAASSLQSGVPSRFSGSGSGTDFTLTISSLQPEDFATYYCQQAETVSPTFGQGTKVEIKR | 
4 | > 50 | mAb 19 (antibody, V domains shown) VH: QVELVQSGAEVKKPGESLKISCKGSGYSFTNYWVGWVRQMPGKGLEWMGFIDPSDSYTNYAPSFQGQVTISADKSISTAYLQWSSLKASDTAMYYCARELYQGYMDTFDSWGQGTLVTVSS VL: DIQMTQSPSSLSASVGDRVTITCRASQSIGLYLAWYQQKPGKAPKLLIYAASSLQSGVPSRFSGSGSGTDFTLTISSLQPEDFATYYCQQYGSVSITFGQGTKVEIK | 
5 | > 50 | mAb 3 (antibody, V domains shown) VH: QVELQQSGPGLVKPSQTLSLTCAISGDSVSTRSAAWGWIRQSPGRGLEWLGRIHRRSKWYNDYAVSVKSRITINPDTSKNQFSLQLNSVTPEDTAVYYCARHTYPYLSFDVWGQGTLVTVSS VL: DIELTQPPSVSVAPGQTARISCSGDALGGYFVSWYQQKPGQAPVLVIYDDDNRPSGIPERFSGSNSGNTATLTISGTQAEDEADYYCASYDGDEFTVFGGGTKLTVL | 
6 | > 50 | mAb 5 (antibody, V domains shown) VH: QVELQQSGPGLVKPSQTLSLTCAISGDSVSTRSAAWGWIRQSPGRGLEWLGRIYMRSKWYNDYAVSVKSRITINPDTSKNQFSLQLNSVTPEDTAVYYCARHTYPYLSFDVWGQGTLVTVSS VL: DIELTQPPSVSVAPGQTARISCSGDALGGYFVSWYQQKPGQAPVLVIYDDDNRPSGIPERFSGSNSGNTATLTISGTQAEDEADYYCQSYDEDSATVFGGGTKLTVL | 
7 | > 50 | mAb 4 (antibody, V domains shown) VH: QVELQQSGPGLVKPSQTLSLTCAISGDSVSTRSAAWGWIRQSPGRGLEWLGKISYRSRWYNDYAVSVKSRITINPDTSKNQFSLQLNSVTPEDTAVYYCARHTYPYLSFDVWGQGTLVTVSS VL: DIELTQPPSVSVAPGQTARISCSGDALGGYFVSWYQQKPGQAPVLVIYDDDNRPSGIPERFSGSNSGNTATLTISGTQAEDEADYYCASYDGDEFTVFGGGTKLTVL | 
8 | > 50 | mAb 17 (antibody, V domains shown) VH: QVELQQSGPGLVKPSQTLSLTCAISGDSVSTRSAAWGWIRQSPGRGLEWLGRIYMRSKWYNDYAVSVKSRITINPDTSKNQFSLQLNSVTPEDTAVYYCARHTYPYLSFDVWGQGTLVTVSS VL: DIELTQPPSVSVAPGQTARISCSGDALGGYFVSWYQQKPGQAPVLVIYDDDNRPSGIPERFSGSNSGNTATLTISGTQAEDEADYYCASYDGDEFTVFGGGTKLTVL | 
9 | > 50 | mAb 6 (antibody, V domains shown) VH: QVELQQSGPGLVKPSQTLSLTCAISGDSVSTRSAAWGWIRQSPGRGLEWLGRIYMRSKWYNDYAVSVKSRITINPDTSKNQFSLQLNSVTPEDTAVYYCARHTYPYLSFDVWGQGTLVTVSS VL: DIELTQPPSVSVAPGQTARISCSGDALGGYFVSWYQQKPGQAPVLVIYDDDNRPSGIPERFSGSNSGNTATLTISGTQAEDEADYYCGSYDSNSLTVFGGGTKLTVL | 
10 | > 50 | mAb 7 (antibody, V domains shown) VH: QVELQQSGPGLVKPSQTLSLTCAISGDSVSTRSAAWGWIRQSPGRGLEWLGRIYMRSKWYNDYAVSVKSRITINPDTSKNQFSLQLNSVTPEDTAVYYCARHTYPYLSFDVWGQGTLVTVSS VL: DIELTQPPSVSVAPGQTARISCSGDALGGYFVSWYQQKPGQAPVLVIYDDDNRPSGIPERFSGSNSGNTATLTISGTQAEDEADYYCSSYDSDSLTVFGGGTKLTVL | 
11 | > 50 | mAb 2 (antibody, V domains shown) VH: QVELVQSGAEVKKPGESLKISCKGSGYSFNNYWIGWVRQMPGKGLEWMGIIDPQDSWTNYAPSFQGQVTISADKSISTAYLQWSSLKASDTAMYYCARNIYEFDYWGQGTLVTVSS VL: DIQMTQSPSSLSASVGDRVTITCRASQGISSWLNWYQQKPGKAPKLLIYGASNLQSGVPSRFSGSGSGTDFTLTISSLQPEDFAVYYCQQYDDFSITFGQGTKVEIK | 
12 | > 50 | mAb 16 (antibody, V domains shown) VH: QVELVQSGAEVKKPGESLKISCKGSGYSFNNYWIGWVRQMPGKGLEWMGIIDPGDSYTNYAPSFQGQVTISADKSISTAYLQWSSLKASDTAMYYCARNIYEFDYWGQGTLVTVSS VL: DIQMTQSPSSLSASVGDRVTITCRASQGISSWLNWYQQKPGKAPKLLIYGASNLQSGVPSRFSGSGSGTDFTLTISSLQPEDFAVYYCQQYDDFSITFGQGTKVEIK | 
13 | > 50 | mAb 8 (antibody, V domains shown) VH: QVELQQSGPGLVKPSQTLSLTCAISGDSVSSNSAAWGWIRQSPGRGLEWLGIIQTRSKWYNDYAVSVKSRITINPDTSKNQFSLQLNSVTPEDTAVYYCARYSYPFYSIDYWGQGTLVTVSS VL: DIELTQPPSVSVAPGQTARISCSGDNIGSYYVHWYQQKPGQAPVLVIYEDSERPSGIPERFSGSNSGNTATLTISGTQAEDEADYYCQSYDSQFSFGVFGGGTKLTVL | 
14 | > 50 | mAb 9 (antibody, V domains shown) VH: QVELQQSGPGLVKPSQTLSLTCAISGDSVSSNSAAWGWIRQSPGRGLEWLGIIQIRSKWYNDYALSVKSRITINPDTSKNQFSLQLNSVTPEDTAVYYCARYSYPFYSIDYWGQGTLVTVSS VL: DIELTQPPSVSVAPGQTARISCSGDNIGSYYVHWYQQKPGQAPVLVIYEDSERPSGIPERFSGSNSGNTATLTISGTQAEDEADYYCQSYDSQFSFGVFGGGTKLTVL | 
15 | > 50 | mAb 10 (antibody, V domains shown) VH: QVELQQSGPGLVKPSQTLSLTCAISGDSVSSNSAAWGWIRQSPGRGLEWLGIIQKRSKWYNNYAVSVKSRITINPDTSKNQFSLQLNSVTPEDTAVYYCARYSYPFYSIDYWGQGTLVTVSS VL: DIELTQPPSVSVAPGQTARISCSGDNIGSYYVHWYQQKPGQAPVLVIYEDSERPSGIPERFSGSNSGNTATLTISGTQAEDEADYYCQSYDTPVYSVFGGGTKLTVL | 
16 | > 50 | mAb 12 (antibody, V domains shown) V domain 1: QVELQQSGPGLVKPSQTLSLTCAISGDSVSSNSAAWGWIRQSPGRGLEWLGIIQKRSKWYNNYAVSVKSRITINPDTSKNQFSLQLNSVTPEDTAVYYCARYSYPFYSIDYWGQGTLVTVSS V domain 2: DIELQQSGPGLVKPSQTLSLTCAISGDSVSSNSAAWGWIRQSPGRGLEWLGIIQKRSKWYNNYAVSVKSRITINPDTSKNQFSLQLNSVTPEDTAVYYCARYSYPFYSIDYWGQGTLVTVSS | 
17 | > 50 | mAb 11 (antibody, V domains shown) VH: QVELQQSGPGLVKPSQTLSLTCAISGDSVSSNSAAWGWIRQSPGRGLEWLGIIQKRSKWYNNYAVSVKSRITINPDTSKNQFSLQLNSVTPEDTAVYYCARYSYPFYSIDYWGQGTLVTVSS VL: DIELTQPPSVSVAPGQTARISCSGDNIGSYYVHWYQQKPGQAPVLVIYEDSERPSGIPERFSGSNSGNTATLTISGTQAEDEADYYCSSYDEPNFNVFGGGTKLTVL | 
18 | > 50 | mAb 18 (antibody, V domains shown) VH: QVELQQSGPGLVKPSQTLSLTCAISGDSVSSNSAAWGWIRQSPGRGLEWLGIIQKRSKWYNNYAVSVKSRITINPDTSKNQFSLQLNSVTPEDTAVYYCARYSYPFYSIDYWGQGTLVTVSS VL: DIELTQPPSVSVAPGQTARISCSGDNIGSYYVHWYQQKPGQAPVLVIYEDSERPSGIPERFSGSNSGNTATLTISGTQAEDEADYYCQSYDSQFSFGVFGGGTKLTVL | 
19 |  | mAb 5429 (antibody, V domains shown) VH: EVQLVASGGGLVKPGASLKLSCVASGFTFSDYWMAWVRQTPGKPMEYIGDIKSDGSKVNYAPSLKNRFTISRDNARTTLYLQMSNVRSEDTATYYCNRDIGPDWYFDFWGPGTMVTVSS VL: DIQMTQSPTSLSASLGETVTIECRASEDIYNGLAWYQQKPGKSPQLLIYDSNSLHTGVPSRFSGRGSGTQYSLRINSLQSEDVASYFCQQYYDYPLTFGSGTKLEIKR | IC50, poly(I:C)-induced ISRE luciferase reporter (full-length murine TLR3): 0.5 µg/mL
20 | > 50 | mAb 15 (antibody) heavy: not shown light: DIQMTQSPSSLSASVGDRVTITCRASQSIGLYLAWYQQKPGKAPKLLIYAASSLQSGVPSRFSGSGSGTDFTLTISSLQPEDFATYYCQQGNTLSYTFGQGTKVEIKRTVAAPSVFIFPPSDEQLKSGTASVVCLLNNFYPREAKVQWKVDNALQSGNSQESVTEQDSKDSTYSLSSTLTLSKADYEKHKVYACEVTHQGLSSPVTKSFNRGEC | IC50, poly(I:C)-induced ISRE luciferase reporter (full-length murine TLR3): 22 µg/mL
21 |  | mAb 15EVQ (antibody) heavy: not shown light: DIQMTQSPSSLSASVGDRVTITCRASQSIGLYLAWYQQKPGKAPKLLIYAASSLQSGVPSRFSGSGSGTDFTLTISSLQPEDFATYYCQQGNTLSYTFGQGTKVEIKRTVAAPSVFIFPPSDEQLKSGTASVVCLLNNFYPREAKVQWKVDNALQSGNSQESVTEQDSKDSTYSLSSTLTLSKADYEKHKVYACEVTHQGLSSPVTKSFNRGEC | IC50, ISRE reporter gene assay (cynomolgus TLR3): 1.74 µg/mL; IC50, NF-κB reporter gene assay (cynomolgus TLR3): 4.18 µg/mL
